{"source": "paper PMC10563445", "about": "“Extracellular microRNA 130b‐3p inhibits eCIRP‐induced inflammation” (EMBO Reports, 2019)", "binders": {"B1": {"name": "recombinant murine cold-inducible RNA-binding protein (natural protein, mouse, UniProt P60824 1-172, looked up)", "chain": "MASDEGKLFVGGLSFDTNEQALEQVFSKYGQISEVVVVKDRETQRSRGFGFVTFENIDDAKDAMMAMNGKSVDGRQIRVDQAGKSSDNRSRGYRGGSAGGRGFFRGGRSRGRGFSRGGGDRGYGGGRFESRSGGYGGSRDYYASRSQGGSYGYRSSGGSYRDSYDSYATHNE", "notes": "also called rmCIRP; recombinant mouse (rm) CIRP"}}, "key": {"[1]": {"target": "TLR4/MD2 complex (human, UniProt O00206;Q9Y6Y9 24-631;19-160)", "sequence (O00206 24-631, chain 1 of 2)": "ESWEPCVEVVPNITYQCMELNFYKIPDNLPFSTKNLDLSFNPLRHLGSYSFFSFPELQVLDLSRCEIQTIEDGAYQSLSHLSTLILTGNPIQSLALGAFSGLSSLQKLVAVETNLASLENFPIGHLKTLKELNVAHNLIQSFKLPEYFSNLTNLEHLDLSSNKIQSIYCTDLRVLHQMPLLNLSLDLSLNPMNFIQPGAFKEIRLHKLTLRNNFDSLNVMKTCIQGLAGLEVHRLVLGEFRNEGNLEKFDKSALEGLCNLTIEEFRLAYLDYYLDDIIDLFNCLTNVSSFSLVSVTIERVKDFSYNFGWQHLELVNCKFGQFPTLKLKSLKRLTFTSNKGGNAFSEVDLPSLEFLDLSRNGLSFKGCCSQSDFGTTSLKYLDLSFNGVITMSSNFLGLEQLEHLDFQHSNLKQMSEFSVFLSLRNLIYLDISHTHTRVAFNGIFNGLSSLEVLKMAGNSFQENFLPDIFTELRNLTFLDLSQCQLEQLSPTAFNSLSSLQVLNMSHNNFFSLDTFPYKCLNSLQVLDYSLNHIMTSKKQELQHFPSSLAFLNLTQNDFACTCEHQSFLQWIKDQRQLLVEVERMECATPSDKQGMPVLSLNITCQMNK", "sequence (Q9Y6Y9 19-160, chain 2 of 2)": "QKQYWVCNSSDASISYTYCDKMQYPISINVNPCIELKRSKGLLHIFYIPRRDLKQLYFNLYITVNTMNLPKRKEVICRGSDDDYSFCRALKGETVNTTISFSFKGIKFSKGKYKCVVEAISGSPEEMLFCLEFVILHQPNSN", "test": "SPR; RNA analyte 31.25-1000 nM, no rmCIRP; SPR (BIAcore T200), 1X HBS-EP running buffer; rmCIRP 7.8-500 nM over RNA; pH and temperature not stated", "conditions": "protein: commercial"}, "[2]": {"target": "T1, rmCIRP (recombinant murine cold-inducible RNA-binding protein) (mouse, UniProt P60824 1-172)", "T1 sequence": "B1 chain", "test": "SPR; RNA immobilized on SA chip; SPR (BIAcore T200), 1X HBS-EP running buffer; rmCIRP 7.8-500 nM over RNA; pH and temperature not stated", "conditions": "single strand"}, "[3]": {"target": "T2, human TLR4/MD2 complex (human, UniProt O00206 24-631; Q9Y6Y9 19-160)", "T2 construct": "Toll-like receptor 4 (TLR4), human, recombinant, in the bought TLR4/MD2 complex; Myeloid differentiation factor 2 (MD2), human, recombinant, in the bought TLR4/MD2 complex; also called TLR4 and myeloid differentiation factor 2 (MD2) complex; source: bought: R&D Systems", "T2 sequence (O00206 24-631, chain 1 of 2)": "as the sequence (O00206 24-631, chain 1 of 2) above", "T2 sequence (Q9Y6Y9 19-160, chain 2 of 2)": "as the sequence (Q9Y6Y9 19-160, chain 2 of 2) above", "test": "SPR; BIAcore T200; human TLR4/MD2 complex immobilised on a CM5 chip; rmCIRP (31.25-500 nM) injected alone as analyte; running buffer 1X HBS-EP; 1:1 binding model", "conditions": "both partners purified"}, "[4]": {"target": "T2, human TLR4/MD2 complex", "test": "SPR; BIAcore T200; human TLR4/MD2 complex immobilised on a CM5 chip; rmCIRP (31.25-1,000 nM) incubated with a constant 50 nM miRNA 130b-3p mimic and injected as analyte; 1X HBS-EP; 1:1 binding model", "conditions": "both partners purified"}, "[5]": {"target": "T2, human TLR4/MD2 complex", "test": "SPR; BIAcore T200; human TLR4/MD2 complex immobilised on a CM5 chip; rmCIRP (31.25-1,000 nM) incubated with a constant 100 nM miRNA 130b-3p mimic and injected as analyte; 1X HBS-EP; 1:1 binding model", "conditions": "both partners purified"}, "[6]": {"target": "T1, rmCIRP (recombinant murine …)", "test": "SPR; RNA immobilized on SA chip; text misprints 8.4 x 10^8 M; SPR (BIAcore T200), 1X HBS-EP running buffer; rmCIRP 7.8-500 nM over RNA; pH and temperature not stated", "conditions": "single strand"}}, "data": [{"binder": "CAGUGCAAUGAUGAAAGGGCAU (ssRNA)", "note": "[miRNA 130b-3p mimic (analyte)]", "values": [{"measurement": "binding result", "setting": "[1]", "result": "no binding"}]}, {"binder": "CAGUGGUUUUACCCUAUGGUAG (ssRNA)", "note": "[miRNA 140 mimic (140-5p), biotinylated]", "values": [{"measurement": "Kd", "setting": "[2]", "result": "160 ± 1.9", "unit": "nM"}]}, {"binder": "CAGUGCAAUGAUGAAAGGGCAU (ssRNA)", "note": "[miRNA 130b-3p mimic, biotinylated]", "values": [{"measurement": "Kd", "setting": "[2]", "result": "50.1 ± 3", "unit": "nM"}]}, {"binder": "B1", "values": [{"measurement": "Kd", "setting": "[3]", "result": "116.5 ± 0.8", "unit": "nM"}, {"measurement": "KD with 50 nM miRNA 130b-3p mimic", "setting": "[4]", "result": 420, "unit": "nM"}, {"measurement": "KD with 100 nM miRNA 130b-3p mimic", "setting": "[5]", "result": 40, "unit": "µM"}]}, {"binder": "UUCACAGUGGCUAAGUUCUGC (ssRNA)", "note": "[miRNA 27b mimic (27b-3p), biotinylated]", "values": [{"measurement": "Kd", "setting": "[6]", "result": "83.5 ± 3.1", "unit": "nM"}]}]}
